# From paper PMC9482650, “Quantitative fragmentomics allow affinity mapping of interactomes” (Nature Communications, 2022)
# Biological target: FRMPD4, Q14CM0
# Assay: holdup assay
# Set-up: key: below the threshold = too weak to quantify, mostly under pKd 3.1 to 4
# Details: plain residues with an end cap or a label only (N-terminal biotin on a linker: ado-ado)
# Chain of FRMPD4, Q14CM0 (Q14CM0 67-160): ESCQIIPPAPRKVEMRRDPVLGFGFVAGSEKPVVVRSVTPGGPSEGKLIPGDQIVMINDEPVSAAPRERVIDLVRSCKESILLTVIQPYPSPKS
row,Binder,pKd
1,"TETASVCTKV [SLC23A1, Q9UHI7]",below the threshold

# Biological target: T1, SIPA1L2, Q9P2F8
# T1 sequence (Q9P2F8 945-1036, limits assumed, looked up): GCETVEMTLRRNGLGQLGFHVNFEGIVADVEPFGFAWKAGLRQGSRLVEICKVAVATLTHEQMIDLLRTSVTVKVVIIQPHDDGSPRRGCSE
# Assay: holdup assay
# Set-up: key: below the threshold = too weak to quantify, mostly under pKd 3.1 to 4
# Details: plain residues with an end cap or a label only (N-terminal biotin on a linker: ado-ado)
row,Binder,pKd
1,"TETASVCTKV [SLC23A1, Q9UHI7]",below the threshold

# Biological target: T2, PDZD7_3, Q9H5P4
# T2 sequence (Q9H5P4 857-944, limits assumed, looked up): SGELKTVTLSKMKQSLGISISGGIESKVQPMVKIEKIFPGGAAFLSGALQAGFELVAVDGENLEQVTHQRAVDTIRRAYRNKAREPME
# Assay: holdup assay
# Set-up: key: below the threshold = too weak to quantify, mostly under pKd 3.1 to 4
# Details: plain residues with an end cap or a label only (N-terminal biotin on a linker: ado-ado)
row,Binder,pKd
1,"TETASVCTKV [SLC23A1, Q9UHI7]",4.63

# Biological target: GORASP1, Q9BQQ3
# Sequence (Q9BQQ3 1-208): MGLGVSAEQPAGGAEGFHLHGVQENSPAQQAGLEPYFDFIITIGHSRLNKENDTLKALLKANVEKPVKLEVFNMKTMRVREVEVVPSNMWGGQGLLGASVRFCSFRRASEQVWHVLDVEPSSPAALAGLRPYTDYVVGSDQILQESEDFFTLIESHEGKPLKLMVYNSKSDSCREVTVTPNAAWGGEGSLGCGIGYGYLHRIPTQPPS
# Assay: holdup assay
# Set-up: key: below the threshold = too weak to quantify, mostly under pKd 3.1 to 4
# Details: plain residues with an end cap or a label only (N-terminal biotin on a linker: ado-ado)
row,Binder,pKd
1,"TETASVCTKV [SLC23A1, Q9UHI7]",3.87

# Biological target: MAGI2_2, Q86UL8
# Sequence (Q86UL8 410-522): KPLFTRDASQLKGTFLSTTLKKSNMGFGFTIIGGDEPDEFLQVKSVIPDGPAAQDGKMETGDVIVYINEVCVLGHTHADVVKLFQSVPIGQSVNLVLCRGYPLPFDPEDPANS
# Assay: holdup assay
# Set-up: key: below the threshold = too weak to quantify, mostly under pKd 3.1 to 4
# Details: plain residues with an end cap or a label only (N-terminal biotin on a linker: ado-ado)
row,Binder,pKd
1,"TETASVCTKV [SLC23A1, Q9UHI7]",3.48

# Biological target: MAGI2_6, Q86UL8
# Sequence (Q86UL8 1141-1229): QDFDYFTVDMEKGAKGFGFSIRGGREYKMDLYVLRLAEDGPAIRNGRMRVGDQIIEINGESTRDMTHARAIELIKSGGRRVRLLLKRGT
# Assay: holdup assay
# Set-up: key: below the threshold = too weak to quantify, mostly under pKd 3.1 to 4
# Details: plain residues with an end cap or a label only (N-terminal biotin on a linker: ado-ado)
row,Binder,pKd
1,"TETASVCTKV [SLC23A1, Q9UHI7]",3.69

# Biological target: LNX1_2, Q8TBB1
# Sequence (Q8TBB1 371-470): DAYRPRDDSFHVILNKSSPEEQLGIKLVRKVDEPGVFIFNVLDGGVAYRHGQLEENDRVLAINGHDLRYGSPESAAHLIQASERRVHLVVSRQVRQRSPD
# Assay: holdup assay
# Set-up: key: below the threshold = too weak to quantify, mostly under pKd 3.1 to 4
# Details: plain residues with an end cap or a label only (N-terminal biotin on a linker: ado-ado)
row,Binder,pKd
1,"TETASVCTKV [SLC23A1, Q9UHI7]",below the threshold

# Biological target: Inadl_3, Q8NI35
# Sequence (Q8NI35 359-469): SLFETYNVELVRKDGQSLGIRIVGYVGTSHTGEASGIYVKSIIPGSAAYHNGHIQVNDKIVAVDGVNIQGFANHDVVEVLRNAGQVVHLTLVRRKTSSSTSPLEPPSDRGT
# Assay: holdup assay
# Set-up: key: below the threshold = too weak to quantify, mostly under pKd 3.1 to 4
# Details: plain residues with an end cap or a label only (N-terminal biotin on a linker: ado-ado)
row,Binder,pKd
1,"TETASVCTKV [SLC23A1, Q9UHI7]",below the threshold

# Biological target: T3, HTRA3, P83110
# T3 sequence (P83110 354-453, limits assumed, looked up): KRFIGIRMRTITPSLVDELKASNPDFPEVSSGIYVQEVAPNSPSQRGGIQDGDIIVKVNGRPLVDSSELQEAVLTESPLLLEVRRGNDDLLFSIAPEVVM
# Assay: holdup assay
# Set-up: key: below the threshold = too weak to quantify, mostly under pKd 3.1 to 4
# Details: plain residues with an end cap or a label only (N-terminal biotin on a linker: ado-ado)
row,Binder,pKd
1,"TETASVCTKV [SLC23A1, Q9UHI7]",below the threshold

# Biological target: T4, FRMPD1, Q5SYB0
# T4 sequence (Q5SYB0 52-145, limits assumed, looked up): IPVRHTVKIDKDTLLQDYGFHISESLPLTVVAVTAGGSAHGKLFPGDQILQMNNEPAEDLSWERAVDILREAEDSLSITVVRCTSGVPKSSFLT
# Assay: holdup assay
# Set-up: key: below the threshold = too weak to quantify, mostly under pKd 3.1 to 4
# Details: plain residues with an end cap or a label only (N-terminal biotin on a linker: ado-ado)
row,Binder,pKd
1,"TETASVCTKV [SLC23A1, Q9UHI7]",below the threshold

# Biological target: TJP1_3, Q07157
# Sequence (Q07157 416-512): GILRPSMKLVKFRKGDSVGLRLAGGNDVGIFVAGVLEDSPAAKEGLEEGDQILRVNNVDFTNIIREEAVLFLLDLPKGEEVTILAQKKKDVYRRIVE
# Assay: holdup assay
# Set-up: key: below the threshold = too weak to quantify, mostly under pKd 3.1 to 4
# Details: plain residues with an end cap or a label only (N-terminal biotin on a linker: ado-ado)
row,Binder,pKd
1,"TETASVCTKV [SLC23A1, Q9UHI7]",below the threshold

# Biological target: GRIP2_7, Q9C0E4
# Sequence (Q9C0E4 934-1023): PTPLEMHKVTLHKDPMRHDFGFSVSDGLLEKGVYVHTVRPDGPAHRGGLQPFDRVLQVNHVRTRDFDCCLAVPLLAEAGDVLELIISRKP
# Assay: holdup assay
# Set-up: key: below the threshold = too weak to quantify, mostly under pKd 3.1 to 4
# Details: plain residues with an end cap or a label only (N-terminal biotin on a linker: ado-ado)
row,Binder,pKd
1,"TETASVCTKV [SLC23A1, Q9UHI7]",below the threshold

# Biological target: IL16_3, Q14005
# Sequence (Q14005 1107-1207): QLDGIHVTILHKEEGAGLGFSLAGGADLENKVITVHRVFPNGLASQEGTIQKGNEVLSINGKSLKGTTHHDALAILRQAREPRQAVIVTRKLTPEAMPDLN
# Assay: holdup assay
# Set-up: key: below the threshold = too weak to quantify, mostly under pKd 3.1 to 4
# Details: plain residues with an end cap or a label only (N-terminal biotin on a linker: ado-ado)
row,Binder,pKd
1,"TETASVCTKV [SLC23A1, Q9UHI7]",below the threshold

# Biological target: T5, GRIP1_5, Q9Y3R0
# T5 sequence (Q9Y3R0 568-668, limits assumed, looked up): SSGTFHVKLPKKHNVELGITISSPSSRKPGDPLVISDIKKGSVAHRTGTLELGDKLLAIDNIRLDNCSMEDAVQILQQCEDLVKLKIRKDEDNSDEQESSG
# Assay: holdup assay
# Set-up: key: below the threshold = too weak to quantify, mostly under pKd 3.1 to 4
# Details: plain residues with an end cap or a label only (N-terminal biotin on a linker: ado-ado)
row,Binder,pKd
1,"TETASVCTKV [SLC23A1, Q9UHI7]",below the threshold

# Biological target: T6, TJP3_3, O95049
# T6 sequence (O95049 375-456, limits assumed, looked up): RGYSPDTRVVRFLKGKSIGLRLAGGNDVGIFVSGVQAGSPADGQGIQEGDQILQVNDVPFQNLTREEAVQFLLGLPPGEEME
# Assay: holdup assay
# Set-up: key: below the threshold = too weak to quantify, mostly under pKd 3.1 to 4
# Details: plain residues with an end cap or a label only (N-terminal biotin on a linker: ado-ado)
row,Binder,pKd
1,"TETASVCTKV [SLC23A1, Q9UHI7]",below the threshold

# Biological target: HTRA1, Q92743
# Sequence (Q92743 360-477): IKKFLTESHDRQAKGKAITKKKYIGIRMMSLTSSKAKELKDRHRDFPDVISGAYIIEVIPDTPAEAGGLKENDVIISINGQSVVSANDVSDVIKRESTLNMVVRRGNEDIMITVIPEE
# Assay: holdup assay
# Set-up: key: below the threshold = too weak to quantify, mostly under pKd 3.1 to 4
# Details: plain residues with an end cap or a label only (N-terminal biotin on a linker: ado-ado)
row,Binder,pKd
1,"TETASVCTKV [SLC23A1, Q9UHI7]",3.73

# Biological target: T7, PDZD2_2, O15018
# T7 sequence (O15018 329-429, limits assumed, looked up): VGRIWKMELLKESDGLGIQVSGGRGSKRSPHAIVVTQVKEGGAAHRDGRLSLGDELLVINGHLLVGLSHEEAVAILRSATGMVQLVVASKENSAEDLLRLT
# Assay: holdup assay
# Set-up: key: below the threshold = too weak to quantify, mostly under pKd 3.1 to 4
# Details: plain residues with an end cap or a label only (N-terminal biotin on a linker: ado-ado)
row,Binder,pKd
1,"TETASVCTKV [SLC23A1, Q9UHI7]",4.12

# Biological target: Inadl_5, Q8NI35
# Sequence (Q8NI35 673-780): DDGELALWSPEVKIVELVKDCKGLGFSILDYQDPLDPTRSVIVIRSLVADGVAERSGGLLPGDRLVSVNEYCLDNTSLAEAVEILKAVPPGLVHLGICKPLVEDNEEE
# Assay: holdup assay
# Set-up: key: below the threshold = too weak to quantify, mostly under pKd 3.1 to 4
# Details: plain residues with an end cap or a label only (N-terminal biotin on a linker: ado-ado)
row,Binder,pKd
1,"TETASVCTKV [SLC23A1, Q9UHI7]",below the threshold

# Biological target: T8, GRIP1_4, Q9Y3R0
# T8 sequence (Q9Y3R0 467-571, limits assumed, looked up): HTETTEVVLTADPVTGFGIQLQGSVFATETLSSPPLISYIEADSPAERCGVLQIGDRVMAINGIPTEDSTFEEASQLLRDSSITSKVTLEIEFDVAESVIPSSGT
# Assay: holdup assay
# Set-up: key: below the threshold = too weak to quantify, mostly under pKd 3.1 to 4
# Details: plain residues with an end cap or a label only (N-terminal biotin on a linker: ado-ado)
row,Binder,pKd
1,"TETASVCTKV [SLC23A1, Q9UHI7]",below the threshold

# Biological target: FRMPD2_3, Q68DX3
# Sequence (Q68DX3 1073-1166): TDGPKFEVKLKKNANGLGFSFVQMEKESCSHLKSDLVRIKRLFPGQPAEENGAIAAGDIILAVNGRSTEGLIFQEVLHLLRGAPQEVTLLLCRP
# Assay: holdup assay
# Set-up: key: below the threshold = too weak to quantify, mostly under pKd 3.1 to 4
# Details: plain residues with an end cap or a label only (N-terminal biotin on a linker: ado-ado)
row,Binder,pKd
1,"TETASVCTKV [SLC23A1, Q9UHI7]",below the threshold

# Biological target: T9, SNTG2, Q9NY99
# T9 sequence (Q9NY99 68-166, limits assumed, looked up): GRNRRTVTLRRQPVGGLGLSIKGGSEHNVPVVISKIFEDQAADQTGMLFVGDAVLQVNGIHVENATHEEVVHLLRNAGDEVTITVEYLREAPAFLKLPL
# Assay: holdup assay
# Set-up: key: below the threshold = too weak to quantify, mostly under pKd 3.1 to 4
# Details: plain residues with an end cap or a label only (N-terminal biotin on a linker: ado-ado)
row,Binder,pKd
1,"TETASVCTKV [SLC23A1, Q9UHI7]",3.82

# Biological target: T10, APBA3_1, O96018
# T10 sequence (O96018 389-490, limits assumed, looked up): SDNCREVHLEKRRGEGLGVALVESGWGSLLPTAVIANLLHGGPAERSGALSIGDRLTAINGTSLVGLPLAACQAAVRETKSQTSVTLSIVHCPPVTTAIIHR
# Assay: holdup assay
# Set-up: key: below the threshold = too weak to quantify, mostly under pKd 3.1 to 4
# Details: plain residues with an end cap or a label only (N-terminal biotin on a linker: ado-ado)
row,Binder,pKd
1,"TETASVCTKV [SLC23A1, Q9UHI7]",below the threshold

# Biological target: LIMK2, P53671
# Sequence (P53671 143-248): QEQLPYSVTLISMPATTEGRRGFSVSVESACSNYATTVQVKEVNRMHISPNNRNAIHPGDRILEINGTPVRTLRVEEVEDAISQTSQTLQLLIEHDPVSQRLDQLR
# Assay: holdup assay
# Set-up: key: below the threshold = too weak to quantify, mostly under pKd 3.1 to 4
# Details: plain residues with an end cap or a label only (N-terminal biotin on a linker: ado-ado)
row,Binder,pKd
1,"TETASVCTKV [SLC23A1, Q9UHI7]",below the threshold

# Biological target: T11, DLG3_2, Q92796
# T11 sequence (Q92796 221-321, limits assumed, looked up): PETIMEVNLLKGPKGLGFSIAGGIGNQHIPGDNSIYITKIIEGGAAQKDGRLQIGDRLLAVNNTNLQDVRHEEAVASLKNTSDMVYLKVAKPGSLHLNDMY
# Assay: holdup assay
# Set-up: key: below the threshold = too weak to quantify, mostly under pKd 3.1 to 4
# Details: plain residues with an end cap or a label only (N-terminal biotin on a linker: ado-ado)
row,Binder,pKd
1,"TETASVCTKV [SLC23A1, Q9UHI7]",4.02

# Biological target: HTRA2, O43464
# Sequence (O43464 355-458): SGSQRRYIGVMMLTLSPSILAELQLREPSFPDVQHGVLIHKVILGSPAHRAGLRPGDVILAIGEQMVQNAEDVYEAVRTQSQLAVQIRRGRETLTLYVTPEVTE
# Assay: holdup assay
# Set-up: key: below the threshold = too weak to quantify, mostly under pKd 3.1 to 4
# Details: plain residues with an end cap or a label only (N-terminal biotin on a linker: ado-ado)
row,Binder,pKd
1,"TETASVCTKV [SLC23A1, Q9UHI7]",below the threshold

# Biological target: NHERF4_4, Q86UT5
# Sequence (Q86UT5 464-550): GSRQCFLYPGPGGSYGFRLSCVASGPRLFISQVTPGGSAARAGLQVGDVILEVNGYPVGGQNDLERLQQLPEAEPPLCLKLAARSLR
# Assay: holdup assay
# Set-up: key: below the threshold = too weak to quantify, mostly under pKd 3.1 to 4
# Details: plain residues with an end cap or a label only (N-terminal biotin on a linker: ado-ado)
row,Binder,pKd
1,"TETASVCTKV [SLC23A1, Q9UHI7]",3.89
